Experimental data reported in patent publication US11773160 (ANAVEON, dated 2023).

What was measured:
Recombinant human IL-2 [1] = molecular target: T1, Recombinant human IL-2 (human, UniProt P60568 21-153); assay: Octet BLI, antibody immobilised on amine reactive sensors, IL-2 in solution
T1 construct: also called hIL-2; recombinant IL-2 (Acro Biosystems, IL2-H4113)
Method: (§1) Antibody A, B or C were immobilized on amine reactive (2nd Generation) sensors (ForteBio, 18-5092). Association (600s) and dissociation (900s) of a dilution series of recombinant IL-2 (Acro Biosystems, IL2-H4113) were measured on the antibody-coated biosensors on an Octet-System (Octet RED, ForteBio). K_D values were obtained by fitting the kinetics data with the ForteBio Data Analysis Software (8.2).

Recombinant human IL-2 [2] = molecular target: T1, Recombinant human IL-2; assay: Octet BLI, antibody immobilised on amine reactive sensors, IL-2 in solution; Octet, free antibody B against recombinant hIL-2: weak binding, KD 269.8 nM
Method: as §1

Recombinant human IL-2 [3] = molecular target: T1, Recombinant human IL-2; assay: ELISA, recombinant human IL-2 coated, antibody titrated, anti-human IgG-Peroxidase
Method: Recombinant human IL-2 was coated on Maxisorp ELISA plates (Invitrogen, 44-2404-21) at 5 µg/ml, 4° C. over night. After 2 hours blocking, antibodies A, B and C were incubated in a serial dilution starting from 10 µg/ml in assay buffer. The antibodies were detected with anti-human IgG-Peroxidase (Sigma, A0170). After addition and blockade of the […] substrate, absorption was read ($A450$-$A570$ at plate reader, Spectramax iD3). $EC50$ values were obtained by plotting Absorbance vs. log(Concentration).

T1 sequence (P60568 21-153 limits assumed): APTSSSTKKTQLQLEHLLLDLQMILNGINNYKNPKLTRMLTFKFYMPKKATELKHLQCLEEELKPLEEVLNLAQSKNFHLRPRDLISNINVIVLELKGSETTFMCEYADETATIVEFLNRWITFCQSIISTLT

| Kd (Recombinant human IL-2 [1]) [nM] | Kd (Recombinant human IL-2 [2]) [nM] | EC50 (Recombinant human IL-2 [3]) [nM] | Binder |
| --- | --- | --- | --- |
| > 1000 |  |  | Antibody C (antibody, human IgG1, kappa, V domains shown, Control antibody, full-length human IgG1 kappa) VH: EVQLVQSGAEVKKPGESLKISCKGSGYSFTNFYIHWVRQAPGQRLEWMGSIYPNYGDTAYNQKFKDRFVFSLDTSVSTAYLQISSLKAEDTAVYYCARGYSYAMDYWGQGTTVTVSS VL: DIQMTQSPSSVSASVGDRVTITCSASQGISGDLNWYQQKPGKAPKLLIYHTSSLHSGVPSRFSGSGSGTDFTLTISSLQPEDFATYYCQYYSKDLLTFGGGTKLEIKR |
|  | 270 |  | Antibody B (antibody, human IgG1, kappa, V domains shown, Full-length human IgG1 kappa) VH: QVQLVESGGGVVQPGRSLRLSCAASGYTFSSYLIEWVRQAPGKGLEWVAVINPGSGGTNYADSVKGRFTISADKSKNTAYLQMNSLRAEDTAVYYCARWRGDGYYAYFDVWGQGTTVTVSS VL: EIVLTQSPATLSVSPGERATLSCRASQSVSYDGDSYMNWYQQKPGQAPRLLIYAASNLASGIPARFSGSGSGTEFTLTISSLQSEDAAVYYCQQSNEDPYTFGGGTKVEIKR |
| 2.1 |  | 0.37 | Antibody A (antibody, human IgG1, kappa, N297A, V domains shown, Humanized full-length human IgG1 kappa; The printed heavy chain carries the N297A Fc) VH: EVQLVQSGAEVKKPGESLKISCKGSGYAFTNYLIEWVRQMPGKGLEWMGVINPGSGGTNYNEKFKGQVTISADKSISTAYLQWSSLKASDTAMYYCARWRGEGYYAYFDVWGQGTTVTVSS VL: AIRLTQSPSSFSASTGDRVTITCKASQSVDYQGDSYMNWYQQKPGKAPKLLIYAASNLESGVPSRFSGSGSGTDFTLTISSLQSEDFATYYCQQSNEDPYTFGGGTKVEIKR |
